Data on 17 molecules can be found in patent publication US20190382484A1 (Chugai, published 2019).

Positions count from the first letter of the chain named.

In data set [1] the target is antibody-half molecule A2 with PF1H / PF1L-k0 (PF1H-DA402v2/PF1L-k0). Briefly: SPR (Biacore T200), about 50 RU of half molecule A captured via biotinylated antigen peptide, half molecule B as analyte at 2.5 mg/mL, 25 C. The procedure:
The interaction between the obtained antibody-half molecules was analyzed using Biacore (registered trademark) T200. Biotin CAPture Kit, Series S (GE Healthcare) was used for the measurement, and HBS-EP+10X (GE Healthcare) diluted 1/10th was used as a running buffer. The measurement temperature was 25° C. For the sensor chip, Series S Sensor Chip CAP (GE Healthcare) onto which previously-biotinylated antigen peptides were allowed to interact and thereby immobilized was used. These chips were allowed to capture approximately 50 RU of the antibody-half molecule A of interest and then interact with the antibody-half molecule B of interest diluted with the running buffer at 2.5 mg/mL for 180 seconds at a flow rate of 30 μL/min, and measurement was carried out. The molar binding ratio was calculated based on the following Formula 2. The antibody-half molecule A captured on the chip was washed as described in the instructions attached to the kit, and the chip was regenerated and reused.
At this time, for the antibody-half molecules to be captured, PF1H (SEQ ID NO: 22), which is the H chain variable region portion of the anti-human IL6 receptor antibody described in WO 2009/041621, was used as the H chain variable region portion, PF1L (SEQ ID NO: 23), which is the L chain variable region portion of the anti-human IL6 receptor antibody described in WO 2009/041621, was used as the L chain variable region portion, and k0 was used as the L chain constant region portion. In addition, for the antibody-half molecules used as analytes, IC17H (SEQ ID NO: 24), which is the anti-KLH antibody described in WO 2015/174439, was used as the H chain variable region, IC17L (SEQ ID NO: 25), which is the anti-KLH antibody described in WO 2015/174439, was used as the L chain variable region, and k0 was used as the L chain constant region.

Data set [2] concerns the molecule itself. The data set can be described thus: size exclusion chromatography (G3000SWXL), absorbance 280 nm; self-association of the half molecule [panel b].
Procedure: The protein concentration of the antibody-half molecules was 0.25 mg/mL, and 80 μL was injected.
Evaluation of the molecular weight of the prepared antibody-half molecules A and B was carried out by size exclusion chromatography.
The target in data set [3] is T1, FcγRIIIa extracellular domain (UniProt P08637 17-208, limits assumed).
T1 construct: extracellular domain; Purified over HisTrap, so a His tag is implied
The data set can be described thus: SPR (Biacore T200), mixed half molecules captured via biotinylated antigen peptide on CAP chip, FcγR as analyte, 25 C. As for the experimental part:
Interaction analysis of antibody-half molecules of interest and FcγR was performed using Biacore (registered trademark) T200. Biotin CAPture Kit, Series S (GE Healthcare) was used for the measurement, and HBS-EP+10X (GE Healthcare) diluted 1/10th was used as a running buffer. The measurement temperature was 25° C. For the sensor chip, Series S Sensor Chip CAP (GE Healthcare) onto which previously-biotinylated antigen peptides were allowed to interact and thereby immobilized was used. These chips were allowed to capture the antibody-half molecules of interest and then interact with FcγR diluted with the running buffer. The antigens and antibody-half molecules captured on the chip were washed as described in the instructions attached to the kit, and the chips were regenerated and reused.

Data set [4] deals with T1, FcγRIIIa extracellular domain. The data set can be described thus: SPR (Biacore T200), half molecule captured via biotinylated antigen peptide on CAP chip, FcγR as analyte.

T1 sequence (P08637 17-208 limits assumed): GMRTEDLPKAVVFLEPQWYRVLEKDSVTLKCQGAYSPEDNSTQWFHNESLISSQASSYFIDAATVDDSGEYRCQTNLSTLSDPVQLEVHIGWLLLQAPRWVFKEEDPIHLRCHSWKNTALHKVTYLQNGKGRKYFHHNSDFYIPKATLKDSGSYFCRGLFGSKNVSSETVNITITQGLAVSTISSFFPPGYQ

B1: antibody-half molecule B2 with IC17H / IC17L-k0 (IC17H-DB402v2/IC17L-k0) (antibody, human IgG1, kappa)
heavy: QVQLQQSGPQLVRPGASVKISCKASGYSFTSYWMHWVNQRPGQGLEWIGMIDPSYSETRLNQKFKDKATLTVDKSSSTAYMQLSSPTSEDSAVYYCALYGNYFDYWGQGTTLTVSSASTKGPSVFPLAPSSKSTSGGTAALGCLVKDYFPEPVTVSWNSGALTSGVHTFPAVLQSSGLYSLSSVVTVPSSSLGTQTYICNVNHKPSNTKVDKKVEPKSCDKTHTSPPSPAPELLGGPSVFLFPPKPKDTLMISRTPEVTCVVVDVSHEEPEVKFNWYVDGVEVHNAKTKPREEQYNSTYRVVSVLTVLHQDWLNGKEYKCKVSNDALPMPIEETISKAKGQPREPQVYTLPPSRDELTKNQVSLTCLVKGFYPSDIAVEWESNGQPENNYKTTPPYLDSDGSFFLYSHLTVDKSRWQQGNVFSCSVMHEALHNHYTQESLSLSP
light: DIQMTQSSSSFSVSLGDRVTITCKASEDIYNRLAWYQQKPGNAPRLLISGATSLETGVPSRFSGSGSGKDYTLSITSLQTEDVATYYCQQYWSTPYTFGGGTKLEVKRTVAAPSVFIFPPSDEQLKSGTASVVCLLNNFYPREAKVQWKVDNALQSGNSQESVTEQDSKDSTYSLSSTLTLSKADYEKHKVYACEVTHQGLSSPVTKSFNRGEC
Regarding B1, the molar binding ratio in data set [1] came to 0.63.

B2: EGLVH-wtIgG4C4/EGLVL-k0 (antibody, V domains shown)
VH: QDQLVQSGAEVKKPGASVKVSCKASGFNIKDTYIQWVRQAPGQGLEWMGRIDPLRKQTKYREKFEGRVTITADTSTNTAYMELSSLRSEDTAVYYCVRSGREFDYWGQGTLVTVSS
VL: DIQMTQSPSSLSASVGDRVTITCRASQDIHKYIAWYQQKPGQAPRLLIQYTSTLQPGVPSRFSGSGSGTDYTFTISSLQPEDIATYYCLQYEQLRTFGGGTKVEIKR
notes: also called control of the half molecule state of antibody
B2: the binding result in data set [2] was “no binding (tested: 0.25 mg/mL injected)”.

B3: MRAH-DA303v2/MRAL-k0 + MRAH-DB220v2/MRAL-k0 (antibody, human IgG1, kappa)
heavy 1: QVQLQESGPGLVRPSQTLSLTCTVSGYSITSDHAWSWVRQPPGRGLEWIGYISYSGITTYNPSLKSRVTMLRDTSKNQFSLRLSSVTAADTAVYYCARSLARTTAMDYWGQGSLVTVSSASTKGPSVFPLAPSSKSTSGGTAALGCLVKDYFPEPVTVSWNSGALTSGVHTFPAVLQSSGLYSLSSVVTVPSSSLGTQTYICNVNHKPSNTKVDKKVEPKSCDKTHTSPPSPAPEYQWGPMVFLFPPKPKDTLMISRTPEVTCVVVDVSDEEPEVKFNWYVDGVEVHNAKTKPREEQYNATYRVVSVLTVLHQDWLNGKEYKCKVSNKALPAPIEKTISKAKGQPREPQVYTLPPSRKELTKNQVSLTCLVKGFYPSDIAVEWESNGQPENNYKTTPPYLDSDGSFFLYSDLTVDKSRWQQGNVFSCSVMHEALHNHYTQKSLSLSP
heavy 2: QVQLQESGPGLVRPSQTLSLTCTVSGYSITSDHAWSWVRQPPGRGLEWIGYISYSGITTYNPSLKSRVTMLRDTSKNQFSLRLSSVTAADTAVYYCARSLARTTAMDYWGQGSLVTVSSASTKGPSVFPLAPSSKSTSGGTAALGCLVKDYFPEPVTVSWNSGALTSGVHTFPAVLQSSGLYSLSSVVTVPSSSLGTQTYICNVNHKPSNTKVDKKVEPKSCDKTHTSPPSPAPELLGGPSVFLFPPKPKDTLMISRTPEVTCVVVDVSHEEPEVKFNWYVDGVEVHNAKTKPREEQYNSTYRVVSVLTVLHQDWLNGKEYKCKVSNDALPMPIEETISKAKGQPREPQVYTLPPSRDELTKNQVSLTCLVKGFYPSDIAVEWESNGQPENNYKTTPPYLDSDGSFFLYSDLTVDKSRWQQGNVFSCSVMHEALHNHYTQESLSLSP
light: not shown
notes: Mixture of the two antibody-half molecules, which form a non-covalent heterodimer when captured on antigen; also called A1 + B1
The molecule B3 gave a Kd in data set [3] of 6.1 nM.

B4: MRAH-DA303v2/MRAL-k0 (antibody, human IgG1, kappa)
heavy: B3 heavy 1
light: not shown
notes: Antibody-half molecule (one H chain, one L chain); L chain MRAL-k0; also called A1; antibody-half molecule A1
Turning to B4, the binding result in data set [4] is “no binding”.

B5: MRAH-DA405v2/MRAL-k0 (antibody, human IgG1, kappa)
heavy: B3 heavy 1 with D411T
light: not shown
notes: Antibody-half molecule (one H chain, one L chain); also called A3; antibody-half molecule A3
On to B5, for which the binding result in data set [4] is “no binding”.

B6: MRAH-DB430v2/MRAL-k0 (antibody, human IgG1, kappa)
heavy: B3 heavy 2 with E359L
light: not shown
notes: Antibody-half molecule (one H chain, one L chain); also called B5; antibody-half molecule B5
On to B6, for which the binding result in data set [4] is listed as “no binding”.

B7: MRAH-DA424v2/MRAL-k0 (antibody, human IgG1, kappa)
heavy: B3 heavy 1 with E359N
light: not shown
notes: Antibody-half molecule (one H chain, one L chain); also called antibody-half molecule A4
Consider B7, for which the binding result in data set [4] is on record as “no binding”.

B8: MRAH-DA430v2/MRAL-k0 (antibody, human IgG1, kappa)
heavy: B3 heavy 1 with E359L
light: not shown
notes: Antibody-half molecule (one H chain, one L chain); also called A5; antibody-half molecule A5
Turning to B8, the binding result in data set [4] was “no binding”.

B9: MRAH-DB405v2/MRAL-k0 (antibody, human IgG1, kappa)
heavy: B3 heavy 2 with D411T
light: not shown
notes: Antibody-half molecule (one H chain, one L chain); also called B3; antibody-half molecule B3
Consider B9, for which the binding result in data set [4] is “no binding”.

B10: MRAH-DA402v2/MRAL-k0 + MRAH-DB402v2/MRAL-k0 (antibody, human IgG1, kappa)
heavy 1: B3 heavy 1 with D411H
heavy 2: B3 heavy 2 with D411H
light: not shown
notes: Mixture of the two antibody-half molecules, which form a non-covalent heterodimer when captured on antigen; also called A2 + B2
B10 showed a Kd in data set [3] of 0.95 nM. In other words, the sub-nanomolar range.

B11: MRAH-DB402v2/MRAL-k0 (antibody, human IgG1, kappa)
heavy: B3 heavy 2 with D411H
light: not shown
notes: Antibody-half molecule (one H chain, one L chain); also called B2; antibody-half molecule B2
In the case of B11, the binding result in data set [4] is “no binding”.

B12: MRAH-DA405v2/MRAL-k0 + MRAH-DB405v2/MRAL-k0 (antibody, human IgG1, kappa)
heavy 1: B3 heavy 1 with D411T
heavy 2: B3 heavy 2 with D411T
light: not shown
notes: Mixture of the two antibody-half molecules, which form a non-covalent heterodimer when captured on antigen; also called A3 + B3
B12 returned a Kd in data set [3] of 1.2 nM. This counts as single-digit nanomolar.

B13: MRAH-DA424v2/MRAL-k0 + MRAH-DB424v2/MRAL-k0 (antibody, human IgG1, kappa)
heavy 1: B3 heavy 1 with E359N
heavy 2: B3 heavy 2 with E359N
light: not shown
notes: Mixture of the two antibody-half molecules, which form a non-covalent heterodimer when captured on antigen; also called A4 + B4
B13 gave a Kd in data set [3] of 10 nM.

B14: MRAH-DB220v2/MRAL-k0 (antibody, human IgG1, kappa)
heavy: B3 heavy 2
light: not shown
notes: Antibody-half molecule (one H chain, one L chain); also called B1; antibody-half molecule B1
With B14, in data set [4], the binding result is recorded as “no binding”.

B15: MRAH-DA430v2/MRAL-k0 + MRAH-DB430v2/MRAL-k0 (antibody, human IgG1, kappa)
heavy 1: B3 heavy 1 with E359L
heavy 2: B3 heavy 2 with E359L
light: not shown
notes: Mixture of the two antibody-half molecules, which form a non-covalent heterodimer when captured on antigen; also called A5 + B5
B15 gave a Kd in data set [3] of 53 nM.

B16: MRAH-DA402v2/MRAL-k0 (antibody, human IgG1, kappa)
heavy: B3 heavy 1 with D411H
light: not shown
notes: Antibody-half molecule (one H chain, one L chain); also called A2; antibody-half molecule A2
With B16, the binding result in data set [4] was “no binding”.

B17: MRAH-DB424v2/MRAL-k0 (antibody, human IgG1, kappa)
heavy: B3 heavy 2 with E359N
light: not shown
notes: Antibody-half molecule (one H chain, one L chain); also called antibody-half molecule B4
Turning to B17, the binding result in data set [4] is reported as “no binding”.
